Laboratory results taken from publication PMC11003769.
Substitutions are numbered along the chain they refer to.

B1: Fab of mAb 6-6 (Fab, V domains shown)
VH: QVQLQVSGPGVVKPSETLSLTCSVSGDSFRRAYFFWSWVRQPPGKGLEWMGGIYTNSESTTYNPSLESRISVSKDASKNQFSLRLTSVTAADTAVYYCTSRAEVYFSGGYYSGGRIDVWGPGVLVTVSS
VL: DIQMTQSPSSLSASVGDRVTVTCRASQDINKDLSWFQQKPGEAPTLLIFTASTLQTGVSSRFSGSGSGTSFSLTISSLQPEDVATYFCQQDHSFPLTFGGGTRVDLQ
B2: Fab of mAb 15-3 (Fab, V domains shown)
VH: QVQLQESGPGVVKPSETLSLSCGVSSASILGGYFFWSWIRQSPGKGLEWMGGVYTNSDTTNYNPSLKSRVAISKDTSVNQFSLRLTSVTAADTAVYYCTARATVHSSASYYYGGRIDVWGPGLLVTVSS
VL: DIQMTQSPSSLSASLGDRVTVTCRASQGINRDLSWFQQKPGKAPTLLIYEVSNLQTGVSSRFSGSGSGTDFTLTISSLQPEDVATYYCQQDYDFPLTFGGGTKVDLK
B3: Fab of mAb 7-2 (Fab, V domains shown)
VH: QVQLQASGPGVVKPSETLSLTCAVSGDYVRRGYFYWSWVRQSPGKGLEWIGGIYSNSDTTNYNPSLKSRLTISKDTSNNQFFLTLSSVTAADTAVYYCTSRAKIYSSGSYYAGGRIDVWGPGVQVIVSS
VL: B2 VL with I2V, Q3H, R18S, R31K, K42E, E50D, V51A, N53T, S77N

Target: HIV-1 BG505.DS.SOSIP.S613A Env trimer (HIV-1 (strain BG505))
Test: BLI; Trimer-Fab method, Octet RED384, 25 °C, 1% BSA in PBS: trimer (100 nM) held by RM19R-human Fc IgG on anti-human Fc capture tips; Fab as analyte in serial dilutions; global fit to a 1:1 Langmuir model

| Binder | Kd [nM] | koff [s⁻¹] | kon [M⁻¹ s⁻¹] |
| --- | --- | --- | --- |
| B1 | 17 | 0.00304 | 179000 |
| B2 | 0.104 | 7.98e-06 | 76500 |
| B3 | 0.774 | 0.000109 | 141000 |
